pKd: −log10 of the molar value.

Test [1] addresses MDM2_(D.rerio) SWIB domain (zebra fish (Danio rerio)). Kind of test: stopped-flow spectroscopy.
The target in test [2] is MDM2_(L.camtschaticum) SWIB domain (arctic lamprey (Lethenteron camtschaticum)). Kind of test: fluorescence polarisation. On the technique in general: In fluorescence polarisation assays a small probe gives low polarisation when free and higher when bound to something large.
Test [3] addresses MDM2_(M.trossulus) SWIB domain (bay mussel (Mytilus trossulus)). Briefly: fluorescence polarisation.

A word on the pKd: it is the Kd on a negative log10 scale, so that one unit is a factor of ten. A low value points to a high Kd. In test [1], p53TAD_(D.rerio)[14–27] (peptide) showed a pKd of 5.72.
Same read-out and setting: the same measure for p53TAD_(D.rerio)^N26L (peptide): 6.47; for p53TAD_(D.rerio)^insertT[18] (peptide): 5.64.
The substance p53TAD_(L.camtschaticum) (peptide) showed a negative-log Kd (pKd) in test [2] of 3.60.
On to p53TAD_(M.trossulus) (peptide), for which, in test [3], the pKd is 4.82.
In test [1], p73TAD_(D.rerio) (peptide) gave a negative-log Kd (pKd) of 6.92.

Source of the values: publication doi:10.1101/2023.01.26.525693.
